The labels stand for the following.
T1: human progastrin (human)
T1 construct: 80-residue progastrin; also called hPG; PG
T1 chain: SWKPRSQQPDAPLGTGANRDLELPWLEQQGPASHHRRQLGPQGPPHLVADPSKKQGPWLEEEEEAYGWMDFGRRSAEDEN

B1: mAb3 (antibody, V domains shown)
VH: EVQLQQSGTVLARPGASVKMSCKASGYIFTSYWVHWVKQRPGQGLEWIGGFYPGNSDSRYNQKFKGKATLTAVTSASTAYMDLSSLTNEDSAVYFCTRRDSPQYWGQGTTLTVSS
VL: DVLMTQTPLSLPVSLGDQASISCRSSQSIVHSNGNTYLEWYLQKPGQSPKLLIYKVSNRFSGVPDRFSGSGSGTDFTLKISRLEAEDLGVYYCFQGSHVPFTFGGGTKLEIK
notes: Murine monoclonal antibody from a hybridoma; also called hybridoma 6B5B11C10
B2: mAb4 (antibody, V domains shown)
VH: QVQLQQSGAELMKPGASVKISCKATGYTFSSSWIEWLKQRPGHGLEWIGEFLPGSGSTDYNEKFKGKATFTADTSSDTAYMLLSSLTSEDSAVYYCATDGNYDWFAYWGQGTLVTVSA
VL: DLVMTQTPLSLPVSLGDQASISCRSSQSLVHSSGVTYLHWYLQKPGQSPKLLIYKVSNRFSGVPDRFSGSGSGTDFTLKISRVEAEDLGVYFCSQSTHVPPTFGSGTKLEIK
notes: Murine monoclonal antibody from a hybridoma; also called hybridoma 20D2C3G2
B3: mAb19 (antibody, V domains shown)
VH: DVQLQESGPGLVKPSQSLSLTCTVTGYSITSDYAWNWIRQFPGNKLEWMGYISFSGYTSYNPSLKSRISVTRDTSRNQFFLQLTSVTTEDTATYYCAREVNYGDSYHFDYWGQGTIVTVSS
VL: QLALTQSSSASFSLGASAKLTCTLSSQHRTYTIEWYQQQSLKPPKYVMEVKKDGSHSTGHGIPDRFSGSSSGADRYLSISNIQPEDEAIYICGVGDAIKGQSVFVFGGGTKVTVL
notes: Murine monoclonal antibody from a hybridoma; also called hybridoma 1B3B4F11
B4: mAb16 (antibody, V domains shown)
VH: QVQLQQSGAELVKPGASVKLSCKASGYTFTSYYMYWVKQRPGQGLEWIGEINPSNGGTNFNEKFKSKATLTVDKSSSTAYMQLSSLTSEDSAVYYCTRGGYYPFDYWGQGTTLTVSS
VL: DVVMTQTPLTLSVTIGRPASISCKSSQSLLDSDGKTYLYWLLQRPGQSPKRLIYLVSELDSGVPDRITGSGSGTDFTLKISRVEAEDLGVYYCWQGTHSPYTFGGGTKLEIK
notes: Murine monoclonal antibody from a hybridoma; also called hybridoma 1E9D9B6
B5: mAb13 (antibody, V domains shown)
VH: EVQLVESGGGLVQPGGSLKLSCAASGFIFSSYGMSWVRQSPDRRLELVASINTFGDRTYYPDSVKGRFTISRDNAKNTLYLQMTSLKSEDTAIYYCARGTGTYWGQGTTLTVSS
VL: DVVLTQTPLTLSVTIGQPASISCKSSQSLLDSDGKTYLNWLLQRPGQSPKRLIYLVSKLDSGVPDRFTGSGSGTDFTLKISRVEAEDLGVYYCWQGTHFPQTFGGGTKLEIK
notes: Murine monoclonal antibody from a hybridoma; also called hybridoma 2C6C3C7

The assay has as its target T1, human progastrin. Description: epitope mapping (no details given).
On to B1, for which the binding result is “binds”.
Turning to B2, the binding result was “binds”.
As for B3, the binding result was “binds”.
With B4 the entry was “binds”; with B5, “binds”.

For the origin of these results see patent publication US20210324069A1 (PROGASTRINE ET CANCERS S R L, published 2021).
